Measured values as given in article PMC11134550.

Key:
Assay in all cases: SPR; Biacore T200; integrin (approx. 1000 RU) or TGFβRII (approx. 400 RU) amine-coupled to CM5 chip; galectin-3 2-fold serial dilutions injected (19.5-5000 nM integrins, 156.3-20000 nM TGFβRII), 30 μl/min, 20 °C, contact 120 s; HBS-P+ pH 7.4 ±1 mM MnCl2; steady-state fit, one-site specific binding; minimum number of binding sites = maximum response/Rmax
[1] = molecular target: recombinant human integrin αvβ1 (glycosylated) (human) (UniProt P06756)
[2] = molecular target: recombinant human integrin αvβ5 (glycosylated) (human) (UniProt P06756)
[3] = molecular target: recombinant human integrin αvβ6 (glycosylated) (human) (UniProt P06756)

binding response relative to αvβ6 [1]: 2 fold
stoichiometry N (individual galectin-3 proteins) [1]: > 16
binding response relative to αvβ6 [2]: 2 fold
stoichiometry N (individual galectin-3 proteins) [2]: > 16
stoichiometry N (individual galectin-3 proteins) [3]: > 8
Substance: recombinant human galectin-3 (expressed and purified for SPR) (from UniProt P17931 1-250) (natural protein)
